According to publication PMC7095341:

Molecular target: MERS-CoV spike receptor binding domain (RBD), residues 367–606, His-tagged (MERS-CoV), K0BRG7
Experiment: SPR
Conditions: remark: other sources report otherwise

B1: human CD26 (dipeptidyl peptidase 4), residues 39–766, His-tagged, P27487 39-766 (receptor)
chain: SRKTYTLTDYLKNTYRLKLYSLRWISDHEYLYKQENNILVFNAEYGNSSVFLENSTFDEFGHSINDYSISPDGQFILLEYNYVKQWRHSYTASYDIYDLNKRQLITEERIPNNTQWVTWSPVGHKLAYVWNNDIYVKIEPNLPSYRITWTGKEDIIYNGITDWVYEEEVFSAYSALWWSPNGTFLAYAQFNDTEVPLIEYSFYSDESLQYPKTVRVPYPKAGAVNPTVKFFVVNTDSLSSVTNATSIQITAPASMLIGDHYLCDVTWATQERISLQWLRRIQNYSVMDICDYDESSGRWNCLVARQHIEMSTTGWVGRFRPSEPHFTLDGNSFYKIISNEEGYRHICYFQIDKKDCTFITKGTWEVIGIEALTSDYLYYISNEYKGMPGGRNLYKIQLSDYTKVTCLSCELNPERCQYYSVSFSKEAKYYQLRCSGPGLPLYTLHSSVNDKGLRVLEDNSALDKMLQNVQMPSKKLDFIILNETKFWYQMILPPHFDKSKKYPLLLDVYAGPCSQKADTVFRLNWATYLASTENIIVASFDGRGSGYQGDKIMHAINRRLGTFEVEDQIEAARQFSKMGFVDNKRIAIWGWSYGGYVTSMVLGSGSGVFKCGIAVAPVSRWEYYDSVYTERYMGLPTPEDNLDHYRNSTVMSRAENFKQVEYLLIHGTADDNVHFQQSAQISKALVDVGVDFQAMWYTDEDHGIASSTAHQHIYTHMSHFIKQCFSLP
modifications: here or on the partner: N229-linked carbohydrate
- Kd: 16.7 nM
- koff: 0.00299 s⁻¹
- kon: 179000 M⁻¹ s⁻¹
